Test results as given in patent publication US20250332275A1, “Branched Polypeptide Carrier for Efficient Nucleic Acid Delivery and Its Variants” (SUZHOU HEALIRNA BIOTECHNOLOGY CO., LTD., priority 2022, published 2025).
Ends that are not written are not given here.

System: mRNA
Test: Agarose gel electrophoresis of branched polypeptide mixed with mRNA
Assay type: physicochemical
Conditions: 1.5% agarose, 190 V, 20 minutes
Protocol: A 1.5% agarose gel was prepared by dissolving agarose in a TBE buffer using a microwave. After adding the sub-green dye, the solution was poured into the gel plate, and a comb was inserted. Polypeptide Sequences 9-12 samples were each mixed with mRNA and then mixed with the sample loading buffer in a 1:1 ratio and set aside after thorough mixing. The gel was loaded with Marker and the samples, then subjected to electrophoresis at 190 V for 20 minutes, and images were captured using a gel imaging system.

[1] = polypeptide with mRNA at a 1:1 mass ratio
[2] = polypeptide with mRNA at a 1:2 mass ratio

| Substance | retention of complex in sample well (mRNA encapsulation, FIG. 7) [1] | retention of complex in sample well (mRNA encapsulation, FIG. 7) [2] |
| --- | --- | --- |
| K(LAALAALAALAALAA)KK(KSKKSKKSKC)KK(LAALAALAALAALAA)KK(KSKKSKKSKC)KK(LAALAALAALAALAA) (chain 1 KKKKKKKKK; chain 2 AALAALAALAALAAL; chain 3 CKSKKSKKSK; also: branched: C-termini of three chain 2 copies amide-linked to side chains of Lys1, Lys5, Lys9 of chain 1, C-termini of two chain 3 copies amide-linked to side chains of Lys3, Lys7 of chain 1) [Polypeptide Sequence 12] | remained within the sample wells | remained within the sample wells |
| K(LAALAALAALAALAAC)KK(KDKDKDKDKDKD)KK(KDKDKDKDKDKD)KK(LAALAALAALAALAAC) (chain 1 KKKKKKK; chain 2 CAALAALAALAALAAL; chain 3 DKDKDKDKDKDK; also: branched: C-termini of two chain 2 copies amide-linked to side chains of Lys1, Lys7 of chain 1, C-termini of two chain 3 copies amide-linked to side chains of Lys3, Lys5 of chain 1) [Polypeptide Sequence 11] | remained within the sample wells | remained within the sample wells |
| K(LAALAALAALAALAALAALAAC)KK(KSKKSKKSKKSKKSK)KK(LAALAALAALAALAALAALAAC) (chain 1 KKKKK; chain 2 CAALAALAALAALAALAALAAL; also: branched: C-termini of two chain 2 copies amide-linked to side chains of Lys1, Lys5 of chain 1, C-terminus of chain 3 amide-linked to side chain of Lys3 of chain 1) [Polypeptide Sequence 10] | remained within the sample wells | remained within the sample wells |
| K(LAALAALAALAALAALAALAAC)KKKK(LAALAALAALAALAALAALAAC) (chain 1 KKKKK; chain 2 CAALAALAALAALAALAALAAL; also: branched: C-termini of two chain 2 copies amide-linked to side chains of Lys1, Lys5 of chain 1) [Polypeptide Sequence 9] | remained within the sample wells | remained within the sample wells |
